± gives the uncertainty stated by the source.
Assay: self-splicing fitness, log relative to wild type (ln ratio); higher = more splicing; Tetrahymena group I intron in knt gene, E. coli kanamycin selection, DiMSum; sequences stand for … in CUCUCU…GGAGGGAAAAGUUAUCAGGCAUGCACCUGGUAGCUAGUCUUUAAACCAAUAGAUUGCAUCGGUUUAAAAGGCAAGACCGUCAAAUUGCGGGAAAGGGGUCAACAGCCGUUCAGUACCAAGUCUCAGGGGAAACUUUGAGAUGGCCUUGCAAAGGGUAUGGUAAUAAGCUGACGGACAUGGUCCUAACCACGCAGCCAAGUCCUAAGUCAACAGAUCUUCUGUUGAUAUGGAUGCAGUUCACAGACUAAAUGUCGGUCGGGGAAGAUGUAUUCUUCUCAUAAGAUAUAGUCGGACCUCUCCUUAAUGGGAGCUAGCGGAUGAAGUGAUGCAACACUGGAGCCGCUGGGAACUAAUUUGUAUGCGAAAGUAUAUUGAUUAGUUUUGGAGUACUCGUGGUCG
Procedure, shortened: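 Pooled colonies went to amplicon sequencing on an Illumina HiSeq 2500 after six replicate transformations. The plates were LB agar with 100 μg/mL carbenicillin, 50 μM IPTG and 0.2% rhamnose, with or without 25 μg/mL kanamycin, incubated overnight at 37°C or 30°C. The E. coli BL21(DE3) library had all eight P1ex-region intron nucleotides randomised, the intron placed in the knt kanamycin-resistance gene on pET-22b(+). DiMSum fitness is the error-weighted combination of replicate fold changes, kanamycin against none, normalised to wild type.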

| Sequence | self-splicing fitness (ln) (37 °C) | self-splicing fitness (ln) (30 °C) |
| --- | --- | --- |
| UCAGAGCAAUAUUACGAACC | -1.15 ± 0.42 | – |
| UCAGAGCAAUAUUACGAACG | -1.85 ± 0.3 | -3.12 ± 0.32 |
| UCAGAGCAAUAUUACGACAC | -0.191 ± 0.45 | -2.63 ± 0.37 |
| UCAGAGCAAUAUUACGACGG | 0.304 ± 0.18 | -0.865 ± 0.14 |
| UCAGAGCAAUAUUACGAGCA | -2.06 ± 0.48 | – |
| UCAGAGCAAUAUUACGAUCG | -2.39 ± 0.33 | – |
| UCAGAGCAAUAUUACGCCCA | – | -2.06 ± 0.44 |
| UCAGAGCAAUAUUACGCGAA | -3.1 ± 0.29 | -2.61 ± 0.21 |
| UCAGAGCAAUAUUACGCGCG | -1.79 ± 0.18 | -2.44 ± 0.19 |
| UCAGAGCAAUAUUACGCUAU | -2.08 ± 0.41 | -3.45 ± 0.48 |
| UCAGAGCAAUAUUACGCUUA | -2.48 ± 0.18 | -2.91 ± 0.24 |
| UCAGAGCAAUAUUACGCUUC | -2.73 ± 0.48 | -1.74 ± 0.24 |
| UCAGAGCAAUAUUACGGACU | -1.77 ± 0.3 | – |
| UCAGAGCAAUAUUACGGGCC | – | -3.69 ± 0.44 |
| UCAGAGCAAUAUUACGGGUC | -2.12 ± 0.32 | -3.97 ± 0.34 |
| UCAGAGCAAUAUUACGGUGC | -0.485 ± 0.15 | -3.88 ± 0.35 |
| UCAGAGCAAUAUUACGUCAG | -2.41 ± 0.29 | -2.84 ± 0.3 |
| UCAGAGCAAUAUUACGUCCU | – | -3.91 ± 0.42 |
| UCAGAGCAAUAUUACGUUGC | -1.48 ± 0.32 | – |
| UCAGAGCAAUAUUACGUUUU | -3.13 ± 0.26 | -3.84 ± 0.26 |
| UCAUAGCAAUAUUACGACGA | -0.532 ± 0.11 | -0.24 ± 0.096 |
| UCAUAGCAAUAUUACGACUC | -1.46 ± 0.37 | -2.18 ± 0.37 |
| UCAUAGCAAUAUUACGAGAC | -2.03 ± 0.34 | -2.84 ± 0.31 |
| UCAUAGCAAUAUUACGAGCG | -0.509 ± 0.13 | -1.95 ± 0.12 |
| UCAUAGCAAUAUUACGAGCU | -2.72 ± 0.3 | -2.69 ± 0.26 |
| UCAUAGCAAUAUUACGAGGA | -0.473 ± 0.21 | -3.42 ± 0.34 |

| Sequence | self-splicing fitness (ln) (37 °C) | self-splicing fitness (ln) (30 °C) |
| --- | --- | --- |
| UCAUAGCAAUAUUACGAGGG | -1.83 ± 0.29 | -2.24 ± 0.21 |
| UCAUAGCAAUAUUACGAUUA | -0.81 ± 0.25 | -0.984 ± 0.17 |
| UCAUAGCAAUAUUACGCCUC | -1.04 ± 0.2 | -2.43 ± 0.31 |
| UCAUAGCAAUAUUACGCGAC | -1.46 ± 0.46 | – |
| UCAUAGCAAUAUUACGCGCG | -0.412 ± 0.21 | -0.405 ± 0.3 |
| UCAUAGCAAUAUUACGCGCU | – | -3.22 ± 0.42 |
| UCAUAGCAAUAUUACGCGUA | -0.884 ± 0.08 | -1.44 ± 0.09 |
| UCAUAGCAAUAUUACGCUUG | -2 ± 0.19 | -1.97 ± 0.15 |
| UCAUAGCAAUAUUACGGAGU | -2.86 ± 0.25 | -3.88 ± 0.34 |
| UCAUAGCAAUAUUACGGAUG | -2.07 ± 0.21 | -2.58 ± 0.21 |
| UCAUAGCAAUAUUACGUAUU | -2.85 ± 0.27 | -2.48 ± 0.22 |
| UCAUAGCAAUAUUACGUCCG | -1.67 ± 0.29 | 0.46 ± 0.24 |
| UCAUAGCAAUAUUACGUGGG | -1.75 ± 0.098 | -3.39 ± 0.16 |
| UCAUAGCAAUAUUACGUUAC | -3.01 ± 0.33 | -3.58 ± 0.29 |
| UCAUAGCAAUAUUACGUUUC | -1.72 ± 0.23 | -3.79 ± 0.43 |
| UCCAAGCAAUAUUACGAAAA | -0.93 ± 0.12 | -2.15 ± 0.18 |
| UCCAAGCAAUAUUACGAAGG | -0.206 ± 0.15 | -1.32 ± 0.11 |
| UCCAAGCAAUAUUACGAGAU | – | -3.54 ± 0.18 |
| UCCAAGCAAUAUUACGAGGA | -2.3 ± 0.23 | -2.7 ± 0.2 |
| UCCAAGCAAUAUUACGAUCC | -0.628 ± 0.48 | – |
| UCCAAGCAAUAUUACGAUUU | -2.71 ± 0.28 | -3.72 ± 0.26 |
| UCCAAGCAAUAUUACGCCCA | -1.07 ± 0.21 | -0.733 ± 0.14 |
| UCCAAGCAAUAUUACGCGUC | -2.63 ± 0.11 | -3.21 ± 0.1 |
| UCCAAGCAAUAUUACGCUAG | -3.6 ± 0.35 | -3.67 ± 0.32 |
| UCCAAGCAAUAUUACGGAAC | -3.52 ± 0.35 | – |
| UCCAAGCAAUAUUACGGACA | -0.757 ± 0.084 | -2.37 ± 0.11 |

| Sequence | self-splicing fitness (ln) (37 °C) | self-splicing fitness (ln) (30 °C) |
| --- | --- | --- |
| UCCAAGCAAUAUUACGGCAA | -0.0878 ± 0.095 | -0.817 ± 0.095 |
| UCCAAGCAAUAUUACGGCGG | -0.773 ± 0.092 | -1.42 ± 0.079 |
| UCCAAGCAAUAUUACGGGAA | -0.547 ± 0.079 | -1.07 ± 0.078 |
| UCCAAGCAAUAUUACGGGGC | -3.13 ± 0.2 | -4.07 ± 0.23 |
| UCCAAGCAAUAUUACGGUAC | -2.81 ± 0.24 | -4.3 ± 0.23 |
| UCCAAGCAAUAUUACGGUCA | 0.0746 ± 0.065 | -0.259 ± 0.06 |
| UCCAAGCAAUAUUACGUGAA | 0.295 ± 0.1 | -0.666 ± 0.074 |
| UCCAAGCAAUAUUACGUGAU | -1.31 ± 0.097 | -3.53 ± 0.12 |
| UCCAAGCAAUAUUACGUGCG | -1.68 ± 0.13 | -3.59 ± 0.15 |
| UCCAAGCAAUAUUACGUGUU | -1.85 ± 0.13 | -3.46 ± 0.15 |
| UCCAAGCAAUAUUACGUUGC | -2.41 ± 0.19 | -3.7 ± 0.17 |
| UCCCAGCAAUAUUACGACCU | -1.69 ± 0.35 | -2.88 ± 0.27 |
| UCCCAGCAAUAUUACGACGC | -0.519 ± 0.23 | -2.81 ± 0.19 |
| UCCCAGCAAUAUUACGACUU | -1.79 ± 0.14 | -3.04 ± 0.17 |
| UCCCAGCAAUAUUACGAUGG | -2.31 ± 0.15 | -3.71 ± 0.13 |
| UCCCAGCAAUAUUACGCAAA | -0.641 ± 0.14 | -2.54 ± 0.18 |
| UCCCAGCAAUAUUACGCAAC | -2.19 ± 0.37 | -3.01 ± 0.37 |
| UCCCAGCAAUAUUACGCUCG | -2.15 ± 0.29 | -2.99 ± 0.18 |
| UCCCAGCAAUAUUACGGCAG | -2.58 ± 0.2 | -4.36 ± 0.29 |
| UCCCAGCAAUAUUACGGCGU | 0.275 ± 0.071 | -0.605 ± 0.057 |
| UCCCAGCAAUAUUACGGGCU | -1.32 ± 0.087 | -1.71 ± 0.066 |
| UCCCAGCAAUAUUACGGGGA | -2.43 ± 0.16 | -3.53 ± 0.17 |
| UCCCAGCAAUAUUACGGGGC | -2.84 ± 0.22 | -2.72 ± 0.17 |
| UCCCAGCAAUAUUACGGUAA | 0.262 ± 0.1 | 0.0812 ± 0.099 |
| UCCCAGCAAUAUUACGGUGG | -2.5 ± 0.15 | -3.65 ± 0.15 |
| UCCCAGCAAUAUUACGUGAA | 0.582 ± 0.067 | 0.116 ± 0.045 |

| Sequence | self-splicing fitness (ln) (37 °C) | self-splicing fitness (ln) (30 °C) |
| --- | --- | --- |
| UCCCAGCAAUAUUACGUGGC | -2.92 ± 0.23 | -3.54 ± 0.15 |
| UCCCAGCAAUAUUACGUUAA | -0.696 ± 0.085 | -1.89 ± 0.093 |
| UCCCAGCAAUAUUACGUUAU | -2.47 ± 0.17 | -4.35 ± 0.18 |
| UCCCAGCAAUAUUACGUUCA | -0.824 ± 0.1 | -0.991 ± 0.093 |
| UCCGAGCAAUAUUACGAGGA | -2.5 ± 0.29 | -3.04 ± 0.25 |
| UCCGAGCAAUAUUACGAUGA | -0.0382 ± 0.079 | -0.4 ± 0.068 |
| UCCGAGCAAUAUUACGAUGC | – | -1.93 ± 0.19 |
| UCCGAGCAAUAUUACGCCCU | – | -2.74 ± 0.31 |
| UCCGAGCAAUAUUACGCGCC | – | -2.88 ± 0.4 |
| UCCGAGCAAUAUUACGGAAG | -1.82 ± 0.28 | -3.67 ± 0.44 |
| UCCGAGCAAUAUUACGGAGC | -2.67 ± 0.26 | -3.17 ± 0.25 |
| UCCGAGCAAUAUUACGGAUA | -2.61 ± 0.19 | -2.34 ± 0.25 |
| UCCGAGCAAUAUUACGGAUC | -2.41 ± 0.39 | – |
| UCCGAGCAAUAUUACGGCGU | -0.438 ± 0.11 | -1.17 ± 0.081 |
| UCCGAGCAAUAUUACGGGCU | -2.97 ± 0.2 | -4.07 ± 0.24 |
| UCCGAGCAAUAUUACGGUAG | -2.43 ± 0.15 | -3.6 ± 0.14 |
| UCCGAGCAAUAUUACGGUUU | -1.02 ± 0.14 | -3.42 ± 0.22 |
| UCCGAGCAAUAUUACGUAAG | -2.13 ± 0.25 | -4.92 ± 0.38 |
| UCCGAGCAAUAUUACGUCAU | -2.75 ± 0.44 | -3.59 ± 0.27 |
| UCCGAGCAAUAUUACGUGAG | -2.43 ± 0.23 | -2.83 ± 0.19 |
| UCCGAGCAAUAUUACGUUGU | -2.96 ± 0.22 | -2.89 ± 0.14 |
| UCCUAGCAAUAUUACGAAUC | -2.17 ± 0.29 | – |
| UCCUAGCAAUAUUACGACCG | -3.65 ± 0.34 | -3.3 ± 0.28 |

— the supplement of paper PMC7877785
